The values below come from patent publication US20240092916A1 (Astellas, published 2024).

What all share (test): ELISA, antigen immobilized at 1 µg/mL, detection with anti-human kappa-HRP
The target of test [1] is T1, ActRIIA-His (LifeSpan Biosciences, LS-G39063) (Homo sapiens (Human), UniProt P27037 20-135).
T1 construct: Bought reagent
The method, then:
(§1) The binding activities of the humanized 75E9STF8-1 obtained in Example 4 to ActRIIA, ActRIIB, and Fn14 were evaluated. ActRIIA-His (LifeSpan Biosciences, LS-G39063), ActRIIB-His (LifeSpan Biosciences, LS-G38834), and the human Fc fusion proteins including the extracellular domain of human Fn14 prepared in Example 3 were each diluted to 1 μg/mL with phosphate-buffered physiological saline (PBS), each added to a Maxisorp 384-well transparent plate (Nunc, 464718) at 15 μL/well, and incubated at 4° C. overnight for immobilization. On the next day, the solid phase liquid was removed and washing was performed with a 0.05% Tween-20-containing Tris-buffered physiological saline (TBS-T). Thereafter, PBS including 20% Blocking One (Nacalai tesque, Inc., 03953-95) was added thereto at 50 μL/well, and the mixture was left to stand at room temperature for 1 hour and then washed with TBS-T. Dilution series of humanized 75E9STF8-1 were prepared by dilution in 12 steps at a 4-fold common ratio from the maximum concentration of 30 μg/mL, and added at 20 μL/well. TBS-T including 5% Blocking One was used as a diluent. After incubation for 1 hour at room temperature, washing was performed with TBS-T. As a detection antibody, Goat Anti-Human Kappa, Mouse ads-HRP (SouthernBiotech, 2061-05) which had been 4,000-fold diluted with a diluent (TBS-T including 5% Blocking One) was added at 20 μL/well. After incubating at room temperature for 1.5 hours, the cells were washed with TBS-T, TMB+Substrate-Chromogen (DAKO, S159985) was added thereto, the mixture was left to stand, 1 M sulfuric acid was added thereto to stop the reaction, and the absorbance at 450 nm was measured with Infinite (registered trademark) 200 Pro (TECAN).

Test [2] concerns the target T2, human Fc fusion protein including the extracellular domain of human Fn14 (human, UniProt Q9NP84 28-80).
T2 construct: extracellular domain; not shown: human Fc
T2 sequence (looked up): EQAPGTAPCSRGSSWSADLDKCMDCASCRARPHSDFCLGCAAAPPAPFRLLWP
The method, then: as §1

Test [3] has as its target T3, ActRIIB-His (LifeSpan Biosciences, LS-G38834) (Homo sapiens (Human), UniProt Q13705 19-137).
T3 construct: Bought reagent
T3 sequence: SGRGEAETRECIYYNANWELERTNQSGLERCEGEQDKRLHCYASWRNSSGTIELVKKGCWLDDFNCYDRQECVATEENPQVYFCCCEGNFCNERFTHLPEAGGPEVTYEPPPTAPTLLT
The method, then: as §1

T1 sequence (P27037 20-135 limits assumed, form in doubt, one chain of several): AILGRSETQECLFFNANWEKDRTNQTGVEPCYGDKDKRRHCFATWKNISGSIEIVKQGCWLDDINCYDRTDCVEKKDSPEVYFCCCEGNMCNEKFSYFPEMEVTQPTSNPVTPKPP

B1: humanized 75E9STF8-1 (bispecific antibody, human IgG1, kappa, L234A L235A)
heavy: EVQLVESGGGLVQPGGSLRLSCAASRSIFAYGTMAWYRQAPGKGRELVATISGGGTTSYSDSVKGRFTISRDNGKSTVYLQMNSLRAEDTAVYYCNKRSIGTNDFWGQGTLVTVSSGGGGSGGGGSGGGGSGGGGSGGGGSEVQLVESGGGLVQPGGSLRLSCAASGFTLTTNALIWGRQAPGAAPGKGPEWVAGIRADGRPYYGDSMKGRVTISRDIAKNTAYLQMNSLRPEDTAVYFCATRLDDSGTYDRGRGTTVTVSSGGGGSGGGGSEVQLVESGGGLVKPGGSLRLSCAASGITFSTYGMNWVRQAPGKGLEWVSSISSRSIHISYADSVKGRFTISRDNAKNSLYLQMSSLRADDTAVYYCARDRGAAAFDYWGRGTLVAVSSASTKGPSVFPLAPSSKSTSGGTAALGCLVKDYFPEPVTVSWNSGALTSGVHTFPAVLQSSGLYSLSSVVTVPSSSLGTQTYICNVNHKPSNTKVDKKVEPKSCDKTHTCPPCPAPEAAGGPSVFLFPPKPKDTLYITREPEVTCVVVDVSHEDPEVKFNWYVDGVEVHNAKTKPREEQYNSTYRVVSVLTVLHQDWLNGKEYKCKVSNKALPAPIEKTISKAKGQPREPQVYTLPPSRDELTKNQVSLTCLVKGFYPSDIAVEWESNGQPENNYKTTPPVLDSDGSFFLYSKLTVDKSRWQQGNVFSCSVMHEALHNHYTQKSLSLSPGK
light: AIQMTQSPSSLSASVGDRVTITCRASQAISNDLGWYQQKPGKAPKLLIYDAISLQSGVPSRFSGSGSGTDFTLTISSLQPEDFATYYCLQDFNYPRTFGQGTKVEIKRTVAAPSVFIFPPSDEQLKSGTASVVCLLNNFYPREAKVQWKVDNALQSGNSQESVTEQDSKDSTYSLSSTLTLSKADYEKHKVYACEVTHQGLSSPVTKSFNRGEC
notes: Expressed in CHO-K1SV cells
With B1, the EC50 (commonly the concentration needed to bring the measured effect to its halfway point) is 5.03 ng/mL in test [1], 23.3 ng/mL in test [2] and 9.24 ng/mL in test [3].
